For this assay, the target named is β-Klotho overexpressed in recombinant human 293T kidney cells. The assay can be described thus: cell-based or functional assay.

In the case of “hFc-(L15)-hFGF21(L98R, P171G, S181T) (Fc fusion)”, the EC50 (nM), ELK-luciferase turned out to be 3.07 nM and the Efficacy, ELK-luciferase came out at 77.6%.
The corresponding values for “hFc-(L15)-hFGF21(L98R, P171G, S181A) (Fc fusion)” are 2.66 nM and 73.5%.
The corresponding values for “hFc-(L15)-hFGF21(L98R, P171G, S181L) (Fc fusion)” are 3.46 nM and 72.6%.
The corresponding values for “hFc-(L15)-hFGF21(L98R, P171G, GGGGG182-6) (Fc fusion)” are 4310 nM and 99.7%.
With “hFc-(L15)-hFGF21(L98R, P171G, Y179P) (Fc fusion)”, the EC50 (nM), ELK-luciferase was found to be 428 nM and the Efficacy, ELK-luciferase was 44.4%.
The corresponding values for “hFc-(L15)-hFGF21(L98R, P171G, S181K) (Fc fusion)” are 130 nM and 87.9%.
The corresponding values for “hFc-(L15)-hFGF21(L98R, P171G, S181P, P182) (Fc fusion)” are 272 nM and 69.9%.
The corresponding values for “hFc-(L15)-hFGF21(L98R, P171G, 1-179) (Fc fusion)” are 7.8 nM and 77.4%.
For the substance “hFc-(L15)-hFGF21(1-178, L98R, P171G) (Fc fusion)”, the EC50 (nM), ELK-luciferase is 167 nM and the Efficacy, ELK-luciferase is 63.9%.
The corresponding values for “hFc-(L15)-hFGF21(L98R, P171G, S181P) (Fc fusion)” are 33.8 nM and 79.5%.
Take “hFc-(L15)-hFGF21(L98R, P171G, Y179G) (Fc fusion)”: the EC50 (nM), ELK-luciferase was determined as 61 nM and the Efficacy, ELK-luciferase was determined as 82.6%.
The corresponding values for MKEDD-hFGF21-(L15)-hFc (Fc fusion) are 834 nM and 83.1%.
For “hFc-(L15)-hFGF21(L98R, P171G, A180P) (Fc fusion)”, the EC50 (nM), ELK-luciferase is 617 nM and the Efficacy, ELK-luciferase worked out at 77.1%.
The corresponding values for “hFc-(L15)-hFGF21(L98R, P171G, S181G) (Fc fusion)” are 3.43 nM and 77.3%.

The values are drawn from patent publication US20100285131A1.
